# Data reported in US20210046160A1 (Synthorx, Inc., priority 2019, published 2021).
# Key:
# [1] = Plasma and tumor PK study E3826-U1803 in B16-F10 tumor-bearing C57BL/6 mice; type: in vivo
# Method: (§1) Terminal blood samples were collected via cardiac puncture at the points indicated. […] Plasma and blood cells (in both studies) and tumors in study E3826-U1803 were collected for PK and PD analyses.
# Bioanalysis of plasma samples was performed using a qualified human IL-2 ELISA assay (Abcam, Cambridge, UK). Concentrations of Aldesleukin, E62_30kD and P65_30kD and the internal standard in samples derived from plasma were determined using an ELISA assay. […] The PK data were imported into Phoenix WinNonlin v6.4 (Certara/Pharsight, Princeton, N.J.) for analysis. The group mean plasma concentration versus time data were analyzed with noncompartmental methods using an IV bolus administration model.
# The tail end of the curves cross showing the plasma eliminates faster than the tumor (data not shown).
# [2] = PK/PD in cynomolgus monkeys, Study No. 20157276; conditions: cynomolgus monkey, 0.3 mg/kg single IV
# Method: The study was conducted at Charles River Laboratories, Inc. (Reno, Nev.) and PK data analysis was performed at NW Solutions (Seattle, Wash.). […] Both plasma and blood cells were collected for PK and PD analyses. Selected time points were used for PK, PD, cell population and hematology analysis.
# [3] = system: Treg cells; assay: pSTAT5 concentration-response in human LRS-derived PBMC samples (flow cytometry): Treg cells; type: cell-based; conditions: Table 4; ratio of pSTAT5 EC50 values
# Method: These studies were performed at PrimityBio LLC (Fremont, Calif.). […] Staining panel for flow cytometry study of LRS-derived PBMC samples include markers for Effector T cells (Teff: CD3+, CD4+, CD8+, CD127+), NK cells (CD3-, CD16+), and Regulatory T cells (Treg: CD3+, CD4+, CD8-, IL-2Rα+, CD127-1).
# The EC50 values (pg/mL) was calculated from dose response curves generated from MFI plots.
# These studies were performed at PrimityBio LLC (Fremont, Calif.). […] Staining panel for flow cytometry study of LRS-derived PBMC samples include markers CD4, CD4+ memory central, CD4+ memory effect, CD4+ memory T cells, CD4+ Naive T cells, CD4+ T cells, CD8, CD8+ memory central, CD8+ memory effect, CD8+ memory T cells, CD8+ Naive T cells, CD8+ T cells, NK cells, and T regulatory cells.
# Conjugates of Table 12 were synthesized by modification of SEQ NO. 1. These studies were performed at PrimityBio LLC (Fremont, Calif.).
# The EC50 values (pg/ml) were calculated from dose response curves generated from the MFI plots.
# [4] = system: pSTAT5 and proliferation in CD8+ T, NK and Treg cells; assay: Pharmacodynamics in peripheral blood compartment (pSTAT5, Ki-67, cell counts), Example 5; type: in vivo, C57BL/6 mice; conditions: mice
# From the text: as §1
# STAT5 phosphorylation and induction of cell proliferation (the early molecular marker Ki-67 and cell counts) was used as pharmacodynamics readouts to assess the pharmacological profile of P65_30kD relative to its pharmacokinetics.
# [5] = B16-F10 tumor-bearing C57BL/6 female mice, 3 mg/kg single IV dose
substance,measurement,setting,value
P65_30kD: SEQ ID NO: 25: IL-2 (SEQ ID NO: 4) with P65 replaced by AzK click-conjugated to methoxy linear 30 kDa PEG [Compound P65_30kD],tumor:plasma AUC ratio,[1]; 1 mg/kg dose,9.7%
same,tumor:plasma AUC ratio,[1]; 3 mg/kg dose,8.4%
same,"AUC0-t, Plasma",[1]; [5],"656,000 h*ng/mL"
same,"AUC0-t, Tumor",[1]; [5],55200 ng·h/mL
same,"AUCINF, Plasma",[1]; [5],"656,000 h*ng/mL"
same,"AUCINF, Tumor",[1]; [5],55200 ng·h/mL
same,"Cmax, Plasma",[1]; [5],40000 ng/mL
same,"Cmax, Tumor",[1]; [5],1550 ng/mL
same,"Tmax, Plasma",[1]; [5],*2.00 h
same,"Tmax, Tumor",[1]; [5],480 min
same,"t½, Plasma",[1]; [5],756 min
same,"t½, Tumor",[1]; [5],1460 min
same,"AUC0-t, Animal 2705",[2],120000 ng·h/mL
same,"AUC0-t, Mean",[2],121000 ng·h/mL
same,"CL, Animal 2699",[2],2.47 mL/h/kg
same,"CL, Animal 2705",[2],2.49 mL/h/kg
same,"CL, Mean",[2],2.48 mL/h/kg
same,"Cmax, Animal 2699",[2],11000 ng/mL
same,"Cmax, Animal 2705",[2],11400 ng/mL
same,"Cmax, Mean",[2],11200 ng/mL
same,"Tmax, Animal 2699",[2],30 min
same,"Tmax, Animal 2705",[2],30 min
same,"Vss, Animal 2699",[2],0.029 L/kg
same,"Vss, Animal 2705",[2],0.0321 L/kg
same,"Vss, Mean",[2],0.0305 L/kg
same,mean plasma concentrations measurable out to (post-dose),[2],168 h
same,"Tmax, Mean",[2]; 0.3 mg/kg,30 min
same,CD8/Treg ratio,[3],2.8
same,"proliferative responses of CD8+ effector T cells and NK cells (not Tregs), time window",[4],72 to 120 h
same,"persistent elevation of pSTAT5 in NK and CD8+ T cells, up to",[4]; single IV dose,up to 72 h
same,"persistent elevation of pSTAT5 in Tregs, up to",[4]; single IV dose,up to 24 h
